From article PMC6327110, “Species-Specific Functional Regions of the Green Alga Gamete Fusion Protein HAP2 Revealed by Structural Studies” (Structure(London, England:1993), 2019)
“And” between values parts separate entries of the source, which are not always exact repeats. Identical values can stand only once.

Target: the molecule itself
Assay: crystal structure; crystals grown from the HAP2-scFv A20 complex, sitting drop, 293K, 0.2M LiSO4, 0.1M Tris-HCl pH 8.5, 25% w/v PEG 5000 MME; space group P6_(3)22, 2.6 Å; no density for the scFv

B1: Chlamydomonas reinhardtii HAP2 ectodomain (residues 23-592) (domain or fragment)
chain: EVIASGRLEKCVVDGVTEELDCQEKVVVTLTVGNGQSLQTEALEFSLSCLNSPDGRCPCSCSAADPTCACRDLAAPLRVSLTKSPLWASYPLQYLSSFNWKPLEVILRPSNKVCKDGDWEDSPTCGWFSQGGVRVADSQGFCCECSSSQVWDDTFGSSKERTRANLDCDFWSDPLDILIGRKPVSAHCLTFDPQWYSGYELGAASLQFEIAITVEVPTAPSPTTATTSATPRTNNSSSANSTNSTNSPAPQFLSPPAPSTREVLHLGPSVPLASSASRLLSAKLLGDLAMYTQLPAISNQVLMVPQPPAAAAATGSPLDATLATNRSAWMLLDKTMLSMDGLACDKVGTGFSAFRYQPSGCGRAPQACLSGQLKDLWEADLARIADGRVPLYMITRFTGGSDTTLQSFSGGPLSFALPVTSHSQSLVTLSVAADGVRLVTNRSPGKITGAAVCRFAGTSCGGFEAVAARGYIYVNITNTGRLDSDYTLTVSNCSSNVRPIEARTLAVRAGSAASLDPPMELYVEDQAAAAARTCTVSLYDSVGAVTDSLTLSFYTNATQLVVKPSGGYNGDDDDK
modifications: N-linked glycan attached to Asn578; further N-linked glycans marked in Figure 1C
notes: HAP2, Chlamydomonas reinhardtii, Uniprot A4GRC6, soluble C-terminally truncated ectodomain, residues 23-592, ending at G592; enterokinase cleavage site immediately downstream of HAP2 G592, before the double strep-tag; Secreted from the vector pMT/BiP/TwinStrep; The strep tag was removed with enterokinase; Trimer in the crystal; trimers, hexamers and remaining monomers in solution; also called …
- stoichiometry N: 3 and 6
